According to US20040052799A1, “Nucleic acid and amino acid sequences relating to Helicobacter pylori for diagnostics and therapeutics” (Astra Aktiebolag, priority 1996, published 2004):
Residue numbers refer to the chain shown, from its start.

Columns and labels:
[1] = target: T1, H. pylori glutamate racemase (murI gene product) (Helicobacter pylori, UniProt Q9ZLT0); experiment: Glutamate racemase activity, conversion of D-glutamate to L-glutamate (two enzyme and single enzyme coupled assays); type: biochemical; settings: purified recombinant enzyme
T1 construct: made in house; host or cells: E. coli BL21(DE3) carrying pET-23-murI and pACYC-groE (GroES/GroEL co-expressed)
T1 sequence (Q9ZLT0 1-255): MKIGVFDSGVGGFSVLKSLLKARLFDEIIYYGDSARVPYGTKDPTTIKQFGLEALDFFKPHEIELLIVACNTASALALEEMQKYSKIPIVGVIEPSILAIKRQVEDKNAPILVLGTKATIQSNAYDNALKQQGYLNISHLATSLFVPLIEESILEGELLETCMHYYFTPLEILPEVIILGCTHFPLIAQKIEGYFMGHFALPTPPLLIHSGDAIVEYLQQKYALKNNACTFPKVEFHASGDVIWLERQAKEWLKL
Description: The activity of glutamate racemase, interconversion of the enantiomers of glutamic acid, was measured using D-glutamic acid as substrate. The method of Gallo and Knowles (Gallo, K. A. and Knowles, J. R., 1993, Biochmistry 32, 3981-3990) that was used to measure the glutamate racemase activity of Lactobacillus fermenti was adapted for the measurement of glutamate racemase activity of the H. pylori murI gene product isolated as a recombinant protein from E. coli. […] Initial rates were determined by following the increase in absorbance at 500 nm in a reaction volume of 200 μl containing 50 mM Tris-HCl, pH 7.8, 4% v/v glycerol, 10 mM NAD, 2 mM INT, 60 Units/ml L-glutamate dehydrogenase, 5 Units/ml diaphorase, and varying concentrations of either substrate (from 0.063 mM to 250 mM D-glutamic acid) or purified enzyme (from 1 μg to 50 μg). After a preincubation of all reagents except either the substrate (D-glutamic acid) or the enzyme (murI gene product) for a period of 5 minutes, reactions were initiated by adding the missing ingredient (i.e., the enzyme or the subtrate, as required), and the increase in optical density at 500 nm was measured in a Microplate Spectophotometer System (Molecular Devices, Spectra MAX 250). Measurements were followed for 20 minutes, and initial velocities were derived by calculating the maximum slope for the absorbance increases. […]

H. pylori Asd = H. pylori Asd (Helicobacter pylori, UniProt Q9ZK28); experiment: Asd assay, reverse reaction, NADPH formation
Description: The enzymatic activity of purified His-tagged H. pylori Asd (SEQ ID NO: 6545) was characterized by assaying the reverse reaction of phosphorylation of L-aspartate-β-semialdehyde (ASA) to L-p-aspartyl phosphate, with concomitant reduction of NADP^+ to NADPH. The formation of NADPH was detected by its absorbance, 340 nm, or by its fluorescence, excitation =340 nm, emission 455 nm.
ASA in 4 N HCl was prepared daily for use in Asd assays by partial neutralization with addition of 1.0 equivalent of […], with a resulting pH=1-2. The amount of ASA was determined enzymatically by complete reaction in the presence of excess NADP^+and phosphate. […] Assays were performed in the following buffer: 200 mM HEPES, 0.3 mM NADP^+, 30 mM NaH2PO4, 1.0 mM DTT, pH 7.5 or pH 8.0. ASA was used in the assay at concentrations of 5-165 μM by diluting the partially-neutralized ASA stock into the assay 10-200 fold, leading to a decrease in pH of 0.1 units or less. Reaction was initiated with the addition of enzyme to a final concentration of 3.5-70 nM.

H. pylori MurC = target: T2, H. pylori MurC (Helicobacter pylori, UniProt Q9ZLL2); experiment: MurC continuous assay, ADP formation coupled to pyruvate kinase/lactate dehydrogenase; type: biochemical; settings: 500 μM UDP-N-acetylmuramate, 1 mM L-alanine, 1 mM ATP, 0.0018 mg/ml MurC, 37° C.
T2 sequence (Q9ZLL2 1-449): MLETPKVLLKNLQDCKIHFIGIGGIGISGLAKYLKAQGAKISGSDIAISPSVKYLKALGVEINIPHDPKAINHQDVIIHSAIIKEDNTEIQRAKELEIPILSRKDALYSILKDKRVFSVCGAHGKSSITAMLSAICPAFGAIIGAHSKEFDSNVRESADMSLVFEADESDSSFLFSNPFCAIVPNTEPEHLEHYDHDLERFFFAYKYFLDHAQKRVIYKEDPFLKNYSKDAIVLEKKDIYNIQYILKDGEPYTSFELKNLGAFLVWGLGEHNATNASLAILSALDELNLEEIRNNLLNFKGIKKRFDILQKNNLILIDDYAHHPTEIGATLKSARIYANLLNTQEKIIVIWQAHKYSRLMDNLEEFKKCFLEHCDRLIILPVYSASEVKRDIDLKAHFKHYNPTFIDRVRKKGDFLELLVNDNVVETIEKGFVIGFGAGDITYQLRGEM
Description: Purified H. pylori MurC was assayed using a continuous assay by coupling ADP formation with NADH oxidation by the pyruvate kinase/lactate dehydrogenase enzyme couple. Assay conditions were as follows: 100 mM Tris·HCl pH 8.0, 2.5 mM 2-mercaptoethanol, 20 mM KCl, 10 mM DTT, 2 mM MgCl2, 10 mM PEP, 0.15 mM NADH, 3.5 units of pyruvate kinase, 5.5 units of lactate dehydrogenase (Sigma), 500 μM UDP-N-acetylmuramate, 1 mM L-alanine, 1 mM ATP and 0.0018 mg/ml MurC at 37° C. […] Previously boiled enzyme could not support ADP formation. Steady state analysis of the dependence of reaction velocity on substrate concentration was done by varying the concentration of a single substrate in concentrations ranging from 0.5 to 5 times Km while holding the other two substrates constant at 5 times Km concentrations.

B1: H. pylori glutamate racemase: purified recombinant H. pylori glutamate racemase (SEQ ID NO: 7635) (protein, listed as Helicobacter pylori)
chain: T1 sequence (Q9ZLT0 1-255)
modifications: misc_feature (B) LOCATION 1...255; hypothetical: YES
Work on B1 yielded a kcat [1] of 0.143 s⁻¹ and a Vmax ([1]; D-glutamate substrate) of ~300 nmoles/min/mg protein.

B2: H. pylori Asd: purified His-tagged H. pylori Asd (SEQ ID NO: 6545) (protein, listed as Helicobacter pylori)
chain: MKTYNVAIVGASGAVGQELIKGLENSFFPIKKFVPLASARSAGKKIRAFNKDYEILETTHEVFEKEEIDIAFFSAGGSVSEEFAISASKTALVIDNTSFFRLNKDVPLVVPEINAQEIFNAPLNIIANPNCSTIQMTQILNPLHLHFKIKSVIVSTYQAVSGAGNKGIESLKNELKTALEHLEKDPAIDLNQVLQAGAFAYPIAFNAIAHIDTFKENGYTKEELKMVHETHKIMGVDFPISATCVRVPVLRSHSESLSIAFEKEFDLKEVYEVLKNAPSVVVCDDPSHNLYPTPLKASHTDSVFIGRLRKDLFDKKTLHGFCVADQLRVGAATNALKIALHYIKNA
modifications: His tag; misc_feature (B) LOCATION 1...346; hypothetical: YES
B2 was tested, and the “decrease of kcat relative to the E. coli enzyme” value (H. pylori Asd) was “about 5 fold”, the “effect of ionic strength on activity” value (H. pylori Asd; ionic strength as high as 0.7 M) was “unaffected” and the kcat (H. pylori Asd; pH 8.0) was 5.4 s⁻¹.

B3: H. pylori MurC: His-tagged H. pylori MurC (SEQ ID NO: 7607) purified from E. coli (protein, listed as Helicobacter pylori)
chain: T2 sequence (Q9ZLL2 1-449) with N313D, A329T
modifications: His tag; misc_feature (B) LOCATION 1...449; hypothetical: YES
Work on B3 yielded a specific activity (H. pylori MurC) of 5900 nmol/min/mg.
